Target: T1, TatD (Escherichia coli K12, UniProt P27859 1-260)
T1 sequence: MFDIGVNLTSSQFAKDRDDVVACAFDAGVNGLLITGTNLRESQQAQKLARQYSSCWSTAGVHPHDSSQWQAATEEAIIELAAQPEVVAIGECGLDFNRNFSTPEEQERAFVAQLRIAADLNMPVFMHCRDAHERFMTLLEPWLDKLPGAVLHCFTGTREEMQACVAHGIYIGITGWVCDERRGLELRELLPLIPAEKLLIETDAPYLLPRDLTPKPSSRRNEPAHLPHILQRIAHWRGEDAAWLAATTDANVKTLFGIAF
Assay: X-ray crystallography 2.9 A; no metal ion identified; only trinucleotide GCT seen, weak density, occupancy 0.7, inactive conformation, likely cleaved product; Co-crystals: TatD 7-8 mg/ml in 10 mM MOPS, 250 mM NaCl, DNA at 1:1.2 (TatD:DNA); reservoir 4% Tacsmate pH 4, 12% PEG 3350; temperature not stated. Nuclease assays (turnover only) not listed
Settings: protein: recombinant; tags: C-terminal His-tag (pET22b); single strand; only 5'-GCT-3' modelled (digestion product or ordered 3' end)

Question: Does GCTTAGCT (ssDNA) [8-nt ssDNA used for co-crystallization] bind?
Answer: binds

Source: publication PMC4176340, “Structure and function of TatD exonuclease in DNA repair”
